Measurements reported in patent US10233437B2, “Hypochlorite resistant cyanuric acid hydrolases and methods of use thereof” (REGENTS OF THE UNIVERSITY OF MINNESOTA, priority 2015, dated 2019).

How the values were obtained:
[1] = Bleach sensitivity of CAH; format: biochemical; conditions: 30 μM protein pre-incubated with 1 mM bleach
Experimental: (§1) To determine bleach sensitivity of WT, C46A and C46S CAH, purified protein (30 μM) was pre-incubated with or without 1 mM bleach. At appropriate time points, aliquots of the protein samples were diluted 100 fold into a solution of 140 ppm cyanuric acid and incubated for 10 minutes before the cyanuric acid concentration was measured with the melamine turbidity assay. The results are plotted as the log of the percent of untreated-protein activity as a function of treatment time.

[2] = Resistance of CAH to mercury (II) salt; format: biochemical; conditions: 48 uM enzyme, 1.6 mM phenyl mercuric acetate, assayed after one minute
Experimental: The effect of a common heavy metal, mercury, on the activity of WT and variant CAH was also tested. […] Specifically, mercury (II) salts were used to test resistance, which are known to be particularly damaging to proteins. The WT or C46A enzymes (48 uM) were incubated with 1.6 mM phenyl mercuric acetate; the WT CAH enzyme retained 1% activity (+/−13% error) (so it was 99% inactivated) while the C46A mutant enzyme retained 89% activity (+1-11%) (so it was completely resistant within experimental error) when assayed after one minute.

[3] = Cyanuric acid hydrolase activity (melamine turbidity assay); format: biochemical; conditions: 140 ppm cyanuric acid in phosphate buffered saline; 0.03 μM enzyme (0.12 μM for C46D, V, T)
Experimental: To determine CAH activity, 0.03 μM enzyme was incubated with a 140 ppm cyanuric acid (CYA) solution in phosphate buffered saline (138 mM NaCl, 3 mM KCl, 10 mM Na2HPO4, 2 mM KH2PO4). For the WT protein and the C46A and C46S variants, fractions were removed every 5 minutes to assay CYA concentration using a modified melamine turbidity assay (Downes et al. 1984). An equal volume of melamine solution (2.5 mg/mL in water) was added to cyanuric acid samples and mixed thoroughly. The absorbance at 600 nm was read 2 minutes after mixing. For the severely impaired CAH proteins (C46D, V and T), 0.12 μM protein was used and fractions were removed every hour for CYA measurement. Specific activity (nmol min^−1 mg^−1) was calculated as the average of triplicate data at two time points.

[4] = Circular dichroism thermal melting; format: physicochemical; conditions: CD at 220 nm, 25 μM protein, 55 to 90° C.
Experimental: The circular dichroism (CD) measurements were performed on a Jasco J-815 spectrometer with 25 μM protein in 50 mM M Tris-HCl buffer, pH 7.2 in a 1 mm path length cell. For thermal melting, the changes in CD spectra at of the proteins were sampled at 220 nm every 1° C. during continuous heating the solutions from 55 to 90° C. at 1 degree per minute. Data were normalized to the initial reading at 55 C.

[5] = Inactivation of CAH by Michael addition; format: biochemical; conditions: 30 uM enzyme, 350 uM N-ethylmaleimide
Experimental: Inactivation of the WT and variant CAH from a Michael addition reaction was also investigated using N-ethylmaleimide. Specifically, the WT or C46A enzymes (30 uM) were incubated with 350 uM N-ethylmaleimide.

[6] = Sensitivity of CAH to iodoacetamide; format: biochemical; conditions: 30 uM CAH, 20 mM iodoacetamide
Experimental: In addition to commonly used oxidants, the effect of a commonly used sulfhydryl reactive agent (iodoacetamide) was also tested on the activity of WT and variant CAH. It was reasoned that a sulfhydryl reactive compound might react with the cysteine sulfhydryl group of the wild-type protein to block substrate access to the active site much in the same way an oxidant could oxidize the cysteine sulfhydryl group and block active site access.
as §1, with “determine” for “determine bleach”, “C46S CAH to various oxidants or sulfhydryl reagents,” for “C46S CAH,”, “without the potential inhibitor, 8.5” for “without 1”, “mM hydrogen peroxide, 50 μM potassium permanganate, 22 μM (1 ppm) ozone or 20 mM iodoacetamide.” for “mM bleach.”, “turbidity assay (explained in previous document).” for “turbidity assay.”

[7] = Sensitivity of CAH to hydrogen peroxide; format: biochemical; conditions: 30 μM CAH, 8.5 mM H2O2
Experimental: as §1, with “determine” for “determine bleach”, “C46S CAH to various oxidants or sulfhydryl reagents,” for “C46S CAH,”, “without the potential inhibitor, 8.5” for “without 1”, “mM hydrogen peroxide, 50 μM potassium permanganate, 22 μM (1 ppm) ozone or 20 mM iodoacetamide.” for “mM bleach.”, “turbidity assay (explained in previous document).” for “turbidity assay.”

Molecule	Resistance to inactivation by bleach [1]	Activity retained [2] [%]	Specific activity [3] [µmol/min/mg]	Thermal melting curve compared to WT [4]	Protection from inactivation by N-ethylmaleimide [5]	Effect of iodoacetamide on activity [6]	Decrease of sensitivity to hydrogen peroxide versus wild-type [7]
C46A: Moorella thermoacetica CAH with cysteine at residue 46 replaced with alanine (protein) MQKVEVFRIPTASPDDISGLATLIDSGKINPAEIVAILGKTEGNGAVNDFTRGFATQSLAMYLAEKLGISREEVVKKVAFIMSGGTEGVMTPHITVFVRKDVQEPAKPGKRLAVGVAFTRDFLPEELGRMEQVNEVARAVKEAMKDAQIDDPRDVHFVQIKCPLLTAERIEDAKRRGKDVVVNDTYKSMAYSRGASALGVALALGEISADKISNEAICHDWNLYSSVASTSAGVELLNDEIIVVGNSTNSASDLVIGHSVMKDAIDADAVRAALKDAGLKFDCCPPAEELAKIVNVLAKAEAASSGTVRGRRNTMLDDSDINHTRSARAVVNAVIASVVGDPMVYVSGGAEHQGPDGGGPIAVIARV	largely resistant to inactivation by bleach	89	10.03	very closely resemble the WT curve	completely protected	not affected	over four-fold
C46S: Moorella thermoacetica CAH with cysteine at residue 46 replaced with serine (protein) MQKVEVFRIPTASPDDISGLATLIDSGKINPAEIVAILGKTEGNGSVNDFTRGFATQSLAMYLAEKLGISREEVVKKVAFIMSGGTEGVMTPHITVFVRKDVQEPAKPGKRLAVGVAFTRDFLPEELGRMEQVNEVARAVKEAMKDAQIDDPRDVHFVQIKCPLLTAERIEDAKRRGKDVVVNDTYKSMAYSRGASALGVALALGEISADKISNEAICHDWNLYSSVASTSAGVELLNDEIIVVGNSTNSASDLVIGHSVMKDAIDADAVRAALKDAGLKFDCCPPAEELAKIVNVLAKAEAASSGTVRGRRNTMLDDSDINHTRSARAVVNAVIASVVGDPMVYVSGGAEHQGPDGGGPIAVIARV	largely resistant to inactivation by bleach		6.972	very closely resemble the WT curve			over four-fold
